“And” between values parts separate entries of the source, which are not always exact repeats. Equal entries are not always repeated.
Key:
[1] = target: ExoU(30–687) (Pseudomonas aeruginosa (clinical strain, GESPA 1999 collection)) (UniProt O34208); test: native MS; purified ExoU∶SpcU complex, 15 µM in 20 mM ammonium acetate, electrospray, positive mode, Micro-TOF-Q
[2] = target: the molecule itself; test: crystal structure; co-expressed, co-purified ExoU(30–687)∶SpcU(1–127) complex; crystals in 0.1 M KNO3, 20% PEG 3350; SAD on the selenium edge, C2 cell, 2.94 Å

Row | Molecule | stoichiometry N (SpcU per ExoU (printed as ExoU∶SpcU)) [1] | binding result [2]
1 | SpcU(1–127) (from UniProt O66100 1-127) (domain or fragment) | 1 and 2 | –
2 | SpcU(1–127) (domain or fragment, selenomethionine in the crystals (SAD on the selenium edge), SpcU, type IA T3SS chaperone of ExoU, Pseudomonas aeruginosa; full length is 1-137; stop codon introduced after residue 127; amplified from a clinical strain (GESPA 1999 collection); also called chaperone SpcU) MIDTWLAQWGLRLPSSNDATLRLQPAEGPELVMERLEGGWLFVVELGLVPSGLPLGVILQLLQVNSPFSSLAPVKLAADDAGRLVLWAEARDGVDDVDALNRLHDRLREGHSRLVPLLEPTGELVPA | – | binds

From PMC3320612, “Structural Basis of Cytotoxicity Mediated by the Type III Secretion Toxin ExoU from Pseudomonas aeruginosa” (PLoS Pathogens, 2012)
